Here are results for ten molecules from US20230235054A1 (BIOATLA, published 2023).

Numbering of substitutions follows the chain as printed.

For orientation: EC50 means the midpoint of the concentration-response curve.

The target in assay [1] is T1, recombinant human Nectin4 antigen (human, UniProt Q96NY8 32-349).
T1 construct: construct not described
T1 sequence (looked up): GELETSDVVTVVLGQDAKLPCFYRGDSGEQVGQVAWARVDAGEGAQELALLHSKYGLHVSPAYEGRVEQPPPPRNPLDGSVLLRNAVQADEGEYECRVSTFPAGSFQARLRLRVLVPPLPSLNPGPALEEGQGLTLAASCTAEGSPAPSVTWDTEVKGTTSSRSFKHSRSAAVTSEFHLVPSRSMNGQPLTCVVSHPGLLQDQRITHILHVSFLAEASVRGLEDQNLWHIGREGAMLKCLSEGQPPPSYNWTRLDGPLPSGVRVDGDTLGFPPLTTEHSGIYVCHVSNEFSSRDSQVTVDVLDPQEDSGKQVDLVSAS
The assay is described as follows: ELISA, coated antigen, PSB pH 7.4. The procedure: (§1) 1) Coat ELISA plates with 100 μL of 1 μg/mL recombinant human Nectin4 antigen or cynoNectin4 antigen in carbonate-bicarbonate coating buffer. […] 2) Cover plates with sealing film and incubate overnight at 4° C. [0444] 3) Decant plates and tap out residual liquid on a stack of paper towels. [0445] 4) Wash wells twice by dispensing 200 μL of pH 6.0 or pH 7.4 ELISA incubation buffer to the wells and completely aspirate the contents. [0446] 5) Add 200 μL of pH 6.0 or pH 7.4 ELISA incubation buffer to the wells. Cover with sealing film and place the plate onto a plate shaker set to 50 rpm for 60 minutes at room temperature. [0447] 6) Decant plates and tap out residual liquid on a stack of paper towels. […] 7) Serially dilute test articles in 3-fold dilutions starting at 3000 ng/mL in pH 6.0 or pH 7.4 ELISA incubation buffer. […] 8) Add 100 μL/well of diluted test articles to the plates [0450] 9) Cover with sealing film and place the plates onto a plate shaker set to 50 rpm for 60 minutes at room temperature. [0451] 10) Decant plates and tap out residual liquid on a stack of paper towels. [0452] 11) Wash wells three times by dispensing 200 μL of pH 6.0 or pH 7.4 ELISA wash buffer to the wells and completely aspirate the contents. […] 12) Dilute the HRP secondary antibody at 1:2500 in pH 6.0 or pH 7.4 ELISA incubation buffer. [0454] […] 14) Cover with sealing film and place the plates onto a plate shaker set to 50 rpm for 60 minutes at room temperature. […] 15) Decant plates and tap out residual liquid on a stack of paper towels. […] 16) Wash wells three times by dispensing 200 μL of pH 6.0 or pH 7.4 ELISA wash buffer to the wells and completely aspirate the contents. [0458] 17) Dispense 50 μL per well of the TMB substrate solution into all wells of the plates.
(ELISA stands for enzyme-linked immunosorbent assay.)

In assay [2] the target is T1, recombinant human Nectin4 antigen. Briefly: ELISA, coated antigen, PSB pH 6.0. The procedure:
as §1

A further assay deals with T2, human Nectin-4 on cells (human, UniProt Q96NY8 32-510).
T2 construct: whole, on cells; also called HEK293 cells expressing human Nectin-4; T47D cells that express human Nectin-4
T2 sequence (looked up): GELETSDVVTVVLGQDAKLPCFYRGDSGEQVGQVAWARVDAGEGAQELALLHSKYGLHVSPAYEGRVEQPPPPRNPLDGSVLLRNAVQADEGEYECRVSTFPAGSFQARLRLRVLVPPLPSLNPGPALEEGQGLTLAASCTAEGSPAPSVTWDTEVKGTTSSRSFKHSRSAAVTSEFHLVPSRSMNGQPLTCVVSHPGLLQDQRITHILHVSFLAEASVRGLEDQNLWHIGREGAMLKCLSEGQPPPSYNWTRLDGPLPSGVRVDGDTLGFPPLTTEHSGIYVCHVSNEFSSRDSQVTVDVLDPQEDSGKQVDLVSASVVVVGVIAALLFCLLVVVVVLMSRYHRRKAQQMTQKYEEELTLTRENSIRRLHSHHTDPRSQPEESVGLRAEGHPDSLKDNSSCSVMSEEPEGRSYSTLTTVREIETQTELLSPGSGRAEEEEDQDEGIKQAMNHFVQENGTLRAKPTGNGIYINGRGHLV
Briefly: FACS, HEK293 cells expressing human Nectin-4. The procedure: FACS analysis was carried out using HEK293 cells expressing human Nectin-4.

Assay [3] concerns the target T1, recombinant human Nectin4 antigen. Briefly: pH range ELISA, 30 ng/mL, pH of 50% binding activity. The procedure:
1) Coat ELISA plates with 100 μL of 1 μg/mL recombinant human Nectin4 antigen in carbonate-bicarbonate coating buffer [0462] 2) Cover plates with sealing film and incubate overnight at 4° C. […] 3) Decant plates and tap out residual liquid on a stack of paper towels [0464] 4) Wash wells twice by dispensing 200 μL of various pH incubation buffer to the wells and completely aspirate the contents [0465] 5) Add 200 μL of various pH incubation buffers (pH5.5, 6.0, 6.2, 6.5, 6.7, 7.0 and 7.4) to the wells. Cover with sealing film and place the plate onto a plate shaker (set to 200 rpm) for 60 minutes at room temperature [0466] 6) Decant plates and tap out residual liquid on a stack of paper towels [0467] 7) Serially dilute test substances in various pH incubation buffers (pH5.5, 6.0, 6.2, 6.5, 6.7, 7.0 and 7.4) to 30 ng/mL [0468] 8) Add 100 μL/well of diluted test substances to the plates [0469] 9) Cover with sealing film and place the plates onto a plate shaker (set to 200 rpm) for 60 minutes at room temperature. [0470] 10) Decant plates and tap out residual liquid on a stack of paper towels. […] 12) Dilute the HRP secondary antibody at 1:2500 in various pH incubation buffers (pH5.5, 6.0, 6.2, 6.5, 6.7, 7.0 and 7.4) [0473] 13) Add 100 μL HRP secondary antibody diluted in various pH incubation buffers (pH5.5, 6.0, 6.2, 6.5, 6.7, 7.0 and 7.4) to each well. […] 14) Cover with sealing film and place the plates onto a plate shaker (set to 200 rpm) for 60 minutes at room temperature. [0475] 15) Decant plates and tap out residual liquid on a stack of paper towels. […] 16) Wash wells three times by dispensing 200 μL of various pH wash buffer (pH5.5, 6.0, 6.2, 6.5, 6.7, 7.0 and 7.4) to the wells and completely aspirating the contents [0477] 17) Dispense 50 μL per well of the TMB substrate solution into all wells of plates.

B1: BAP-143-wildtype (antibody, V domains shown)
VH: EVQLVESGGGLVQPGGSLRLSCAASGFTFSSYNMNWVRQAPGKGLEWVSYISSSSSTIYYADSVKGRFTISRDNAKNSLSLQMNSLRDEDTAVYYCARAYYYGMDVWGQGTTVTVSS
VL: DIQMTQSPSSVSASVGDRVTITCRASQGISGWLAWYQQKPGKAPKFLIYAASTLQSGVPSRFSGSGSGTDFTLTISSLQPEDFATYYCQQANSFPPTFGGGTKVEIK
notes: 150 kDa used in SPR; also called BAP143-00-00; benchmark (BM)
Regarding B1, the concentration for a half-maximal effect (EC50) is 0.0202 µg/mL in assay [1] and 0.0216 µg/mL in assay [2].

B2: BAP-143-06-24-16 (antibody, V domains shown)
VH: EVQLVQSGAEVKKPGATVKISCKVSGFTFSSYNMNWIRQSPSRGLEWLGYISSSSSTIYYADSVKGRFTISRDNSKNTLYLQMNSLRAEDTAVYYCARAYYYGDDVWGQGTLVTVSS
VL: B1 VL with R24H
notes: Used as a conjugate with a linker payload (CAB ADC)
On to B2, for which the “Ratio (pH 7.4/6.0) of EC50” value with human Nectin-4 on cells was found to be 1.4. In addition, in assay [2], the EC50 came out at 0.0368 µg/mL.

B3: BAP-143-06-33-03 (antibody, V domains shown)
VH: QVQLVQSGAEVKKPGASVKVSCKASGFTFSSYNMNWVRQARGQRLEWIGYISSSSSTIYYADSVKGRFTISRDNSKNTLYLQMNSLRAEDTAVYYCARAYYYGMDKWGQGTLVTVSS
VL: B1 VL with F94E
notes: as for B2
Take B3: in the assay with human Nectin-4 on cells, the “Ratio (pH 7.4/6.0) of EC50” value was 2.8. In addition, the pH inflection point in assay [3] worked out at 6.85 pH. Besides, the 50% effective concentration (EC50) in assay [2] stood at 0.0575 µg/mL.

B4: BAP-143-00-01 (antibody, V domains shown)
VH: B1 VH
VL: B1 VL with L33E
notes: as for B2
Take B4: in the assay with human Nectin-4 on cells, the “Ratio (pH 7.4/6.0) of EC50” value amounted to 2.2. Further, in assay [3], the pH inflection point is 6.58 pH.

B5: BAP-143-00-05 (antibody, V domains shown)
VH: B1 VH with R98E
VL: B1 VL
notes: as for B2
Take B5: in assay [1], the 50% effective concentration (EC50) amounted to 0.141 µg/mL.

B6: BAP-143-00-06 (antibody, V domains shown)
VH: B1 VH with M104D
VL: B1 VL
notes: as for B2
Turning to B6, in assay [1], the EC50 stood at 0.0698 µg/mL.

B7: BAP-143-00-04 (antibody, V domains shown)
VH: B1 VH with M34D
VL: B1 VL
notes: as for B2
With B7, the EC50 in assay [1] came out at 0.061 µg/mL.

B8: BAP-143-06-33-16 (antibody, V domains shown)
VH: B2 VH
VL: B1 VL with L33E
notes: as for B2
In the case of B8, in the assay with human Nectin-4 on cells, the “Ratio (pH 7.4/6.0) of EC50” value was 1.5. Also, in assay [3], the pH inflection point worked out at 6.6 pH. In addition, in assay [2], the concentration giving a half-maximal response (EC50) is 0.0669 µg/mL.

B9: BAP-143-07-03-12 (antibody, V domains shown)
VH: B1 VH with V106K
VL: B1 VL with L33E
notes: as for B2
Consider B9, for which the “Ratio (pH 7.4/6.0) of EC50” value with human Nectin-4 on cells was 2. In assay [3], the pH inflection point is 6.51 pH. Also, in assay [2], the EC50 worked out at 0.0533 µg/mL.

B10: BAP-143-00-03 (antibody, V domains shown)
VH: B1 VH
VL: B1 VL with P96D
notes: as for B2
With B10, in assay [1], the concentration for a half-maximal effect (EC50) came to 0.245 µg/mL.
